Reference: paper PMC9482650, “Quantitative fragmentomics allow affinity mapping of interactomes” (Nature Communications, 2022)
Substitutions are numbered along the chain they refer to.

T1: ARHGAP21, Q5T5U3
T1 sequence (Q5T5U3 45-169, limits assumed, looked up): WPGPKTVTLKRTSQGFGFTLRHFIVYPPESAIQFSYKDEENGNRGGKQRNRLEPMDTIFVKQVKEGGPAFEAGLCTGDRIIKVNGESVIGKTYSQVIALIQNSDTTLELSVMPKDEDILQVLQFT

T2: DLG3_1, Q92796
T2 sequence (Q92796 125-227, limits assumed, looked up): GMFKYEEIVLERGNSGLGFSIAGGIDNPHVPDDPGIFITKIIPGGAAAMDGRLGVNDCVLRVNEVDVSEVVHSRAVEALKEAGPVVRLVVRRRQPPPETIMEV

T3: GRIP1_4, Q9Y3R0
T3 sequence (Q9Y3R0 467-571, limits assumed, looked up): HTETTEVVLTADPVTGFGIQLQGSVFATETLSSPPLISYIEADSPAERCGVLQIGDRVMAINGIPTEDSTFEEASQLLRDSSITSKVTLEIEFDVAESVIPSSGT

T4: LIN7B, Q9HAP6
T4 sequence (Q9HAP6 88-185, limits assumed, looked up): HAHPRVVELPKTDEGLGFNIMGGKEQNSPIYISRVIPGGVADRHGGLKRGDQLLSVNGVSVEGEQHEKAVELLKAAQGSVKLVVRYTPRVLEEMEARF

T5: LIN7C, Q9NUP9
T5 sequence (Q9NUP9 88-185, limits assumed, looked up): T4 sequence (Q9HAP6 88-185, limits assumed, looked up) with A2S, D13E, V35I, V40I, Q65H, S79K, R89K, A96S

T6: MPDZ_10, O75970
T6 sequence (O75970 1624-1722, limits assumed, looked up): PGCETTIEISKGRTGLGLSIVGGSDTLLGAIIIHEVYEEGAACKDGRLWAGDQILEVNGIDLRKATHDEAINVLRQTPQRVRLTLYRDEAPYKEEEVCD

T7: MPDZ_5, O75970
T7 sequence (O75970 695-796, limits assumed, looked up): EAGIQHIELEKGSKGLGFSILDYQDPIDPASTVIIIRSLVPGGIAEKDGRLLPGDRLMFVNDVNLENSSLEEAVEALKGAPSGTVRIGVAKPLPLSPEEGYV

T8: MPP6, Q9NZW5
T8 sequence (Q9NZW5 125-219, limits assumed, looked up): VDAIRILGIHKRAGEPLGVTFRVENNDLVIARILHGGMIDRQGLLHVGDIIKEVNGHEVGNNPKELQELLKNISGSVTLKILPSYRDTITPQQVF

T9: PDZD2_2, O15018
T9 sequence (O15018 329-429, limits assumed, looked up): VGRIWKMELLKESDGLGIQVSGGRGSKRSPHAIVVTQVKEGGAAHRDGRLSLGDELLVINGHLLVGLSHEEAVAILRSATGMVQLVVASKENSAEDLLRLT

T10: SNTB1, Q13884
T10 sequence (Q13884 107-205, limits assumed, looked up): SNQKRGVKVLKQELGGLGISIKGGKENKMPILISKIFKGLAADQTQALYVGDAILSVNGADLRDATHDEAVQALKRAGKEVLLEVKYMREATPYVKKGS

T11: TIAM2, Q8IVF5
T11 sequence (Q8IVF5 885-986, limits assumed, looked up): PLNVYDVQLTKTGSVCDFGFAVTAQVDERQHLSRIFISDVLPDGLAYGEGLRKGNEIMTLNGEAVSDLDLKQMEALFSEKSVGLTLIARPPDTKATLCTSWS

T12: TX1BP3, O14907
T12 sequence (O14907 10-122, limits assumed, looked up): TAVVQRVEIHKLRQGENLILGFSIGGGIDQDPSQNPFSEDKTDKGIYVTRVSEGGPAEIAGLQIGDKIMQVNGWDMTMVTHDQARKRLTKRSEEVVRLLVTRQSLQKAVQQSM


Experiments:
Assay in all cases: holdup assay
Set-up in all cases: key: below the threshold = too weak to quantify, mostly under pKd 3.1 to 4
Settings in all cases: plain residues with an end cap or a label only (N-terminal biotin on a linker: ado-ado)
AHNAK1, Q09666 = molecular target: AHNAK1, Q09666
ARHGAP21, Q5T5U3 = molecular target: T1, ARHGAP21, Q5T5U3
DLG3_1, Q92796 = molecular target: T2, DLG3_1, Q92796
DLG5_1, Q8TDM6 = molecular target: DLG5_1, Q8TDM6
FRMPD2_1, Q68DX3 = molecular target: FRMPD2_1, Q68DX3
FRMPD2_2, Q68DX3 = molecular target: FRMPD2_2, Q68DX3
GRASP, Q7Z6J2 = molecular target: GRASP, Q7Z6J2
GRID2IP_2, A4D2P6 = molecular target: GRID2IP_2, A4D2P6
GRIP1_4, Q9Y3R0 = molecular target: T3, GRIP1_4, Q9Y3R0
Inadl_6, Q8NI35 = molecular target: Inadl_6, Q8NI35
LAP2, Q96RT1 = molecular target: LAP2, Q96RT1
LIN7B, Q9HAP6 = molecular target: T4, LIN7B, Q9HAP6
LIN7C, Q9NUP9 = molecular target: T5, LIN7C, Q9NUP9
LNX1_2, Q8TBB1 = molecular target: LNX1_2, Q8TBB1
MAGI1_2, Q96QZ7 = molecular target: MAGI1_2, Q96QZ7
MPDZ_10, O75970 = molecular target: T6, MPDZ_10, O75970
MPDZ_5, O75970 = molecular target: T7, MPDZ_5, O75970
MPP6, Q9NZW5 = molecular target: T8, MPP6, Q9NZW5
PDZD2_2, O15018 = molecular target: T9, PDZD2_2, O15018
PICK1, Q9NRD5 = molecular target: PICK1, Q9NRD5
SCRIB_3, Q14160 = molecular target: SCRIB_3, Q14160
SNTB1, Q13884 = molecular target: T10, SNTB1, Q13884
SNX27, Q96L92 = molecular target: SNX27, Q96L92
TIAM2, Q8IVF5 = molecular target: T11, TIAM2, Q8IVF5
TX1BP3, O14907 = molecular target: T12, TX1BP3, O14907

AHNAK1, Q09666, sequence (Q09666 4-100): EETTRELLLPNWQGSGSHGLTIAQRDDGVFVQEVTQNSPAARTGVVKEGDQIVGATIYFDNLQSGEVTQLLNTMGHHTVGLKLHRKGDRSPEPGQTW
DLG5_1, Q8TDM6, sequence (Q8TDM6 617-713): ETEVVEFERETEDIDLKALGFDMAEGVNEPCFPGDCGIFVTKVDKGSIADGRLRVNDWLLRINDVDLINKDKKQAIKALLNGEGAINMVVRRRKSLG
LAP2, Q96RT1, sequence (Q96RT1 other isoform, or with tags, fused parts or gaps): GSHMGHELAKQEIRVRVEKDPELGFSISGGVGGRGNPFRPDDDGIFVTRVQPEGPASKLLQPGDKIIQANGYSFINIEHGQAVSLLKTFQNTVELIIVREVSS
SCRIB_3, Q14160, sequence (Q14160 999-1103): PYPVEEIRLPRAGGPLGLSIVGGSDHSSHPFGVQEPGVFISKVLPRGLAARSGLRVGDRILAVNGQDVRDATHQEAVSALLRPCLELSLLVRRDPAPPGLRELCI
PICK1, Q9NRD5, sequence (Q9NRD5 17-115): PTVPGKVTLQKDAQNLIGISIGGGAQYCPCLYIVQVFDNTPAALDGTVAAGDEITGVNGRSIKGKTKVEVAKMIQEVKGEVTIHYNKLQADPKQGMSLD
MAGI1_2, Q96QZ7, sequence (Q96QZ7 456-580): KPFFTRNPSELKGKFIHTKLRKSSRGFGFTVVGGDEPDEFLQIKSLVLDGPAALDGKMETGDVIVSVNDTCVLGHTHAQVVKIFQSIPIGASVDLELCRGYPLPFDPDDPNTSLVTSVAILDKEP
GRASP, Q7Z6J2, sequence (Q7Z6J2 96-193): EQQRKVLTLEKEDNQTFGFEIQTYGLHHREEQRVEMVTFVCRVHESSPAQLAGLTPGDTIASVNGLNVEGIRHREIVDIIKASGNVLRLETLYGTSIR
FRMPD2_2, Q68DX3, sequence (Q68DX3 944-1038): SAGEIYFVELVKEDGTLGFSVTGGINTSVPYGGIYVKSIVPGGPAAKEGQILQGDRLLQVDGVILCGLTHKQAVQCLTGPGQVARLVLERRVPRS
GRID2IP_2, A4D2P6, sequence (A4D2P6 272-370): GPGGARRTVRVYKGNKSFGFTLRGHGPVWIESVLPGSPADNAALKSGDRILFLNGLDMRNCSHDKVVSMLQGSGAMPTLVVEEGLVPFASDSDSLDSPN
LNX1_2, Q8TBB1, sequence (Q8TBB1 371-470): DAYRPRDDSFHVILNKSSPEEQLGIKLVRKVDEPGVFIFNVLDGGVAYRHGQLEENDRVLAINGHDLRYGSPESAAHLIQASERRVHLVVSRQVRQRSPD
Inadl_6, Q8NI35, sequence (Q8NI35 1058-1167): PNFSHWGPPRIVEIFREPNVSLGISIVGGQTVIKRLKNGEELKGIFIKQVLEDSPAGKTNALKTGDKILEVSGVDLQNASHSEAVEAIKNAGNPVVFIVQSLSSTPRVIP
FRMPD2_1, Q68DX3, sequence (Q68DX3 770-861): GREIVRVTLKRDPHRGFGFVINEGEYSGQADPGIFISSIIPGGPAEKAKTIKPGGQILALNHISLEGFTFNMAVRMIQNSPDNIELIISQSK

Row | Binder | pKd (AHNAK1, Q09666) | pKd (ARHGAP21, Q5T5U3) | pKd (DLG3_1, Q92796) | pKd (DLG5_1, Q8TDM6) | pKd (FRMPD2_1, Q68DX3) | pKd (FRMPD2_2, Q68DX3) | pKd (GRASP, Q7Z6J2) | pKd (GRID2IP_2, A4D2P6) | pKd (GRIP1_4, Q9Y3R0) | pKd (Inadl_6, Q8NI35) | pKd (LAP2, Q96RT1) | pKd (LIN7B, Q9HAP6) | pKd (LIN7C, Q9NUP9) | pKd (LNX1_2, Q8TBB1) | pKd (MAGI1_2, Q96QZ7) | pKd (MPDZ_10, O75970) | pKd (MPDZ_5, O75970) | pKd (MPP6, Q9NZW5) | pKd (PDZD2_2, O15018) | pKd (PICK1, Q9NRD5) | other results
1 | RHGSCVETSL [TMEM151B, Q8IW70] | below the threshold | 4.17 | 3.53 | below the threshold | below the threshold | 3.57 | 4.21 | 4.36 | below the threshold | 4.31 | 3.94 | 4.45 | 4.43 | below the threshold | 3.76 | below the threshold | below the threshold | below the threshold | 3.56 | 4.18 | pKd (SCRIB_3, Q14160): 5.36; pKd (SNTB1, Q13884): 4.88; pKd (SNX27, Q96L92): 5.55; pKd (TIAM2, Q8IVF5): below the threshold; pKd (TX1BP3, O14907): 4.8
2 | QMNQTLPVQV [EPHB3, P54753] | below the threshold | 4 | below the threshold | below the threshold | 4.36 | below the threshold | below the threshold | 3.58 | below the threshold | below the threshold | below the threshold | below the threshold | below the threshold | 4.53 | below the threshold | 3.49 | 3.84 | below the threshold | below the threshold | 4.35 | pKd (SCRIB_3, Q14160): 3.48; pKd (SNTB1, Q13884): below the threshold; pKd (SNX27, Q96L92): 3.86; pKd (TIAM2, Q8IVF5): below the threshold; pKd (TX1BP3, O14907): below the threshold
3 | IPLDGETEEL [MYOZ1, Q9NP98] | below the threshold | below the threshold | below the threshold | below the threshold | below the threshold | below the threshold | 3.74 | below the threshold | below the threshold | below the threshold | below the threshold | below the threshold | below the threshold | below the threshold | below the threshold | below the threshold | below the threshold | below the threshold | below the threshold | below the threshold | pKd (SCRIB_3, Q14160): below the threshold; pKd (SNTB1, Q13884): below the threshold; pKd (SNX27, Q96L92): 3.69; pKd (TIAM2, Q8IVF5): below the threshold; pKd (TX1BP3, O14907): below the threshold
